Reference: PMC12373895

What was measured:
Experiment in all cases: ELONA
[1] = biological target: T1, ERA deltaKH (Staphylococcus aureus, UniProt Q2FY06 1-202)
T1 sequence: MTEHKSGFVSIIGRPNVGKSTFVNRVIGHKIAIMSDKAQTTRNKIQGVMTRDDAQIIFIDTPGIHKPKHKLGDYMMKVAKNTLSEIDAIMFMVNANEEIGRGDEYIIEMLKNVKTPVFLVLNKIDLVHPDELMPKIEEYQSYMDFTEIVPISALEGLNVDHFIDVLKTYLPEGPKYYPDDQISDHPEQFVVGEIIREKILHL

[2] = biological target: T2, 1F8 (Chagas antigenic protein) (Trypanosoma cruzi, UniProt P07749 1-211)
T2 sequence: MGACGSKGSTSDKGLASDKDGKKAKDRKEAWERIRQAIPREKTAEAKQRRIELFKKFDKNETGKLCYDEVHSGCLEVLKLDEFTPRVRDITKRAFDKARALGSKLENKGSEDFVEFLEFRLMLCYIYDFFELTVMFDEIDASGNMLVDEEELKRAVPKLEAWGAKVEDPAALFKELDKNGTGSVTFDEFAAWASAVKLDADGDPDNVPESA

[3] = biological target: T3, ERA GTPase (Staphylococcus aureus, UniProt Q2FY06 1-299)
T3 sequence: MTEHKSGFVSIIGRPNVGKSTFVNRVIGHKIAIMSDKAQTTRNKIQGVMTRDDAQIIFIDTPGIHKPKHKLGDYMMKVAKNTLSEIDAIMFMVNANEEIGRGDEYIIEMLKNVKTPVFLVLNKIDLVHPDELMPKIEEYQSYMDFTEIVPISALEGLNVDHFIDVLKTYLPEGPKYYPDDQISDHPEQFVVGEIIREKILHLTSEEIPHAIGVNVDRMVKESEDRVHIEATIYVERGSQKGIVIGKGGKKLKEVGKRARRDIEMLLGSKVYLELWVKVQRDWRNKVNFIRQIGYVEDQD

[4] = biological target: T3, ERA GTPase; remark: listed apart in the source

B1: AptERA 2 (40 nt) (ssDNA)
DNA: TACTAGCCCTACCTGTACTCTCGAGCCGATTTTAAGGATC
binding result [1]: no binding
binding result [2]: no binding
Kd [3]: 243 ± 16 nM
apparent K (half saturation) [4]: 185 ± 3 nM
